Assay results from US20180346602A1.

What was measured:
[1] = biological target: anti-VEGF/ANG2 antibody (IgG1 subclass with mutations P329G/L234A/L235A/I253A/H310A/H435A) [IgG part: P01857]; assay: sandwich ELISA assay E; tracer M1.7.10-Dig; analyte 1) at 50 ng/mL
[2] = biological target: anti-VEGF/ANG2 antibody (IgG1 subclass with mutations P329G/L234A/L235A) [IgG part: P01857]; assay: sandwich ELISA assay E; tracer M1.7.10-Dig; analyte 2) at 100 ng/mL
[3] = biological target: anti-VEGF/ANG2 antibody (IgG1 subclass with mutations P329G/L234A/L235A) [IgG part: P01857]; assay: sandwich ELISA assay E; tracer M1.7.10-Dig; analyte 2) at 6.25 ng/mL
[4] = biological target: anti-VEGF/ANG2 antibody (IgG1 subclass with mutations P329G/L234A/L235A) [IgG part: P01857]; assay: sandwich ELISA assay E; tracer M1.7.10-Dig; analyte 2) at 1.5625 ng/mL
[5] = biological target: anti-VEGF/ANG2 antibody (IgG1 subclass with mutations P329G/L234A/L235A) [IgG part: P01857]; assay: sandwich ELISA assay E; tracer M1.7.10-Dig; analyte 2) at 0 ng/mL (blank)
[6] = biological target: anti-Dig antibody (IgG1 subclass with mutations P329G/L234A/L235A) [IgG part: P01857]; assay: sandwich ELISA assay D; tracer M1.7.10-Dig; analyte conc. not printed (row 4 of 8)
[7] = biological target: anti-Dig antibody (IgG1 subclass with mutations P329G/L234A/L235A) [IgG part: P01857]; assay: sandwich ELISA assay D; tracer M1.7.10-Dig; analyte conc. not printed (row 6 of 8)
[8] = biological target: anti-Dig antibody (IgG1 subclass with mutations P329G/L234A/L235A) [IgG part: P01857]; assay: sandwich ELISA assay D; tracer M1.7.10-Dig; analyte conc. not printed (row 7 of 8)
[9] = biological target: anti-Dig antibody (IgG1 subclass with mutations P329G/L234A/L235A) [IgG part: P01857]; assay: sandwich ELISA assay D; tracer M1.7.10-Dig; analyte conc. not printed (row 8 of 8)
[10] = biological target: anti-Dig antibody (IgG1 subclass with mutations P329G/L234A/L235A) [IgG part: P01857]; assay: sandwich ELISA assay D; tracer M1.19.31-Dig; analyte conc. not printed (row 1 of 8)
[11] = biological target: anti-Dig antibody (IgG1 subclass with mutations P329G/L234A/L235A) [IgG part: P01857]; assay: sandwich ELISA assay D; tracer M1.19.31-Dig; analyte conc. not printed (row 4 of 8)
[12] = biological target: anti-Dig antibody (IgG1 subclass with mutations P329G/L234A/L235A) [IgG part: P01857]; assay: sandwich ELISA assay D; tracer M1.19.31-Dig; analyte conc. not printed (row 5 of 8)
[13] = biological target: anti-Dig antibody (IgG1 subclass with mutations P329G/L234A/L235A) [IgG part: P01857]; assay: sandwich ELISA assay D; tracer M1.19.31-Dig; analyte conc. not printed (row 7 of 8)
target antibodies [14] = assay: depletion of target antibody from sample; concentration before depletion 0.30 µg/mL
target antibodies [15] = assay: depletion of target antibody from sample; concentration before depletion 1.00 µg/mL
target antibodies [16] = assay: depletion of target antibody from sample; concentration before depletion 3.00 µg/mL
target antibodies [17] = assay: depletion of target antibody from sample; concentration before depletion 10.00 µg/mL
target antibodies [18] = assay: depletion of target antibody from sample; concentration before depletion 100.00 µg/mL
[19] = biological target: anti-VEGF/ANG2 antibody (wild-type IgG1 subclass) (human) [IgG part: P01857]; assay: sandwich ELISA assay C; capture on SA plate; tracer FcγRI-Dig; analyte 3 ng/mL
[20] = biological target: anti-VEGF/ANG2 antibody (wild-type IgG1 subclass) (human) [IgG part: P01857]; assay: sandwich ELISA assay C; capture on SA plate; tracer FcγRI-Dig; analyte 6 ng/mL
[21] = biological target: anti-VEGF/ANG2 antibody (wild-type IgG1 subclass) (human) [IgG part: P01857]; assay: sandwich ELISA assay B; capture on SA plate; tracer M1.7.10-Dig; analyte 3 ng/mL
[22] = biological target: anti-VEGF/ANG2 antibody (wild-type IgG1 subclass) (human) [IgG part: P01857]; assay: sandwich ELISA assay C; capture on SA plate; tracer FcγRI-Dig; analyte 100 ng/mL
[23] = biological target: anti-VEGF/ANG2 antibody (wild-type IgG1 subclass) (human) [IgG part: P01857]; assay: sandwich ELISA assay B; capture on SA plate; tracer M1.7.10-Dig; analyte 25 ng/mL
[24] = biological target: anti-VEGF/ANG2 antibody (wild-type IgG1 subclass) (human) [IgG part: P01857]; assay: sandwich ELISA assay B; capture on SA plate; tracer M1.7.10-Dig; analyte 50 ng/mL
[25] = biological target: anti-VEGF/ANG2 antibody (wild-type IgG1 subclass) (human) [IgG part: P01857]; assay: sandwich ELISA assay C; capture on SA plate; tracer FcγRI-Dig; analyte 0 ng/mL (blank)
[26] = biological target: anti-VEGF/ANG2 antibody (wild-type IgG1 subclass) (human) [IgG part: P01857]; assay: sandwich ELISA assay B; capture on SA plate; tracer M1.7.10-Dig; analyte 0 ng/mL (blank)

B1: anti-variant (human) Fc-region antibody M1.3.17 (antibody, V domains shown)
VH: EVKLLESGGGLVQPGGSLKLSCAASGIDFRRYWMNWVRQAPGKGLEWIGEIDPDSSTINYTPSLKDKFIISRDNAKNTMYLQMRKVRSEDTALYYCARPYDYGAWFAYWGQGTLVTVSA
VL: QAVVTQESALTTSPGETVTLTCRSTTGAVTTSNYANWVQEKPDHLFTGLIGGTNKRAPGVPARFSGSLIGDKAALTITGAQTEDEAIYFCALWYSDHWVFGGGTKLTVL
signal [OD405 nm] [1]: 1.95 OD405 nm | signal [OD405 nm] [2]: 2.27 OD405 nm | signal [OD405 nm] [3]: 0.577 OD405 nm | signal [OD405 nm] [4]: 0.187 OD405 nm | signal [OD405 nm] [5]: 0.027 OD405 nm | signal 10% cynomolgus serum [OD405 nm] [6]: 0.194 OD405 nm | signal 10% human serum [OD405 nm] [6]: 2.48 OD405 nm | signal buffer [OD405 nm] [6]: 0.032 OD405 nm | signal 10% cynomolgus serum [OD405 nm] [7]: 0.065 OD405 nm | signal 10% human serum [OD405 nm] [7]: 2.53 OD405 nm | signal buffer [OD405 nm] [7]: 0.032 OD405 nm | signal 10% cynomolgus serum [OD405 nm] [8]: 0.052 OD405 nm | signal 10% human serum [OD405 nm] [8]: 2.53 OD405 nm | signal buffer [OD405 nm] [8]: 0.029 OD405 nm | signal 10% cynomolgus serum [OD405 nm] [9]: 0.044 OD405 nm | signal 10% human serum [OD405 nm] [9]: 2.51 OD405 nm | signal buffer [OD405 nm] [9]: 0.031 OD405 nm | signal 10% cynomolgus serum [OD405 nm] [10]: 1.87 OD405 nm | signal 10% human serum [OD405 nm] [10]: 2.58 OD405 nm | signal buffer [OD405 nm] [10]: 0.05 OD405 nm | signal 10% cynomolgus serum [OD405 nm] [11]: 0.162 OD405 nm | signal 10% human serum [OD405 nm] [11]: 1.73 OD405 nm | signal buffer [OD405 nm] [11]: 0.037 OD405 nm | signal 10% cynomolgus serum [OD405 nm] [12]: 0.105 OD405 nm | signal 10% human serum [OD405 nm] [12]: 1.71 OD405 nm | signal buffer [OD405 nm] [12]: 0.036 OD405 nm | signal 10% cynomolgus serum [OD405 nm] [13]: 0.075 OD405 nm | signal 10% human serum [OD405 nm] [13]: 1.71 OD405 nm | signal buffer [OD405 nm] [13]: 0.033 OD405 nm | concentration after depletion (target antibodies [14]): 0.0002 µg/mL | recovery [%] (target antibodies [14]): 0.065% | concentration after depletion (target antibodies [15]): 0.0007 µg/mL | recovery [%] (target antibodies [15]): 0.067% | concentration after depletion (target antibodies [16]): 0.0023 µg/mL | recovery [%] (target antibodies [16]): 0.078% | concentration after depletion (target antibodies [17]): 0.0017 µg/mL | recovery [%] (target antibodies [17]): 0.017% | concentration after depletion (target antibodies [18]): 0.0173 µg/mL | recovery [%] (target antibodies [18]): 0.017%

B2: anti-variant (human) Fc-region antibody M1.7.24 (antibody, V domains shown)
VH: EVKLLESGGGLVQPGGSLKLSCAASGFDFSRYWMNWVRQAPGKGLEWIGEITPDSSTINYTPSLKDKFIISRDNAKNTLYLQMIKVRSEDTALYYCVRPYDYGAWFASWGQGTLVTVSA
VL: QAVVTQESALTTSPGETVTLTCRSSTGAVTTSNYANWVQEKPDHLFTGLIGGTNKRAPGVPARFSGSLIGDKAALTITGAQTEDEAIYFCALWYSNHWVFGGGTKLTVL
signal [OD405 nm] [1]: 1.94 OD405 nm | signal [OD405 nm] [2]: 2.22 OD405 nm | signal [OD405 nm] [3]: 0.528 OD405 nm | signal [OD405 nm] [4]: 0.172 OD405 nm | signal [OD405 nm] [5]: 0.028 OD405 nm | signal [OD405 nm] [19]: 0.053 OD405 nm | signal [OD405 nm] [20]: 0.057 OD405 nm | signal [OD405 nm] [21]: 0.033 OD405 nm | signal [OD405 nm] [22]: 0.073 OD405 nm | signal [OD405 nm] [23]: 0.041 OD405 nm | signal [OD405 nm] [24]: 0.04 OD405 nm | signal 10% cynomolgus serum [OD405 nm] [6]: 0.223 OD405 nm | signal 10% human serum [OD405 nm] [6]: 2.46 OD405 nm | signal buffer [OD405 nm] [6]: 0.034 OD405 nm | signal 10% cynomolgus serum [OD405 nm] [7]: 0.05 OD405 nm | signal 10% human serum [OD405 nm] [7]: 2.4 OD405 nm | signal buffer [OD405 nm] [7]: 0.031 OD405 nm | signal 10% cynomolgus serum [OD405 nm] [8]: 0.041 OD405 nm | signal 10% human serum [OD405 nm] [8]: 2.44 OD405 nm | signal buffer [OD405 nm] [8]: 0.034 OD405 nm | signal 10% cynomolgus serum [OD405 nm] [9]: 0.031 OD405 nm | signal 10% human serum [OD405 nm] [9]: 2.45 OD405 nm | signal buffer [OD405 nm] [9]: 0.033 OD405 nm | signal 10% cynomolgus serum [OD405 nm] [10]: 2.25 OD405 nm | signal 10% human serum [OD405 nm] [10]: 2.5 OD405 nm | signal buffer [OD405 nm] [10]: 0.054 OD405 nm | signal 10% cynomolgus serum [OD405 nm] [11]: 0.173 OD405 nm | signal 10% human serum [OD405 nm] [11]: 1.43 OD405 nm | signal buffer [OD405 nm] [11]: 0.037 OD405 nm | signal 10% cynomolgus serum [OD405 nm] [12]: 0.078 OD405 nm | signal 10% human serum [OD405 nm] [12]: 1.33 OD405 nm | signal buffer [OD405 nm] [12]: 0.033 OD405 nm | signal 10% cynomolgus serum [OD405 nm] [13]: 0.039 OD405 nm | signal 10% human serum [OD405 nm] [13]: 1.39 OD405 nm | signal buffer [OD405 nm] [13]: 0.033 OD405 nm | signal [OD405 nm] [25]: 0.073 OD405 nm | signal [OD405 nm] [26]: 0.039 OD405 nm

B3: anti-AAA variant Fc-region antibody M1.6.22 (antibody, V domains shown)
VH: EVQLVESGGDLVKPGGSLKLSCAASGFTFSSYGMSWVRQTPDKRLEWVATISSGGSYIYYPDSVKGRFTISRDNAKNTLYLQMSSLKSEDTAMYYCARLGMITTGYAMDYWGQGTSVTVSS
VL: DVLMTQTPLSLPVSLGDQASISCRSSQTIVHSTGHTYLEWFLQKPGQSPKLLIYKVSNRFSGVPDRFSGSGSGTDFTLKISRVEAEDLGVYYCFQGSHVPYTFGGGTKLEIK
signal [OD405 nm] [19]: 0.069 OD405 nm | signal [OD405 nm] [20]: 0.064 OD405 nm | signal [OD405 nm] [21]: 0.037 OD405 nm | signal [OD405 nm] [22]: 0.076 OD405 nm | signal [OD405 nm] [23]: 0.047 OD405 nm | signal [OD405 nm] [24]: 0.049 OD405 nm | concentration after depletion (target antibodies [14]): 0.0001 µg/mL | recovery [%] (target antibodies [14]): 0.039% | concentration after depletion (target antibodies [15]): 0.0003 µg/mL | recovery [%] (target antibodies [15]): 0.031% | concentration after depletion (target antibodies [16]): 0.0023 µg/mL | recovery [%] (target antibodies [16]): 0.008% | concentration after depletion (target antibodies [17]): 0.0005 µg/mL | recovery [%] (target antibodies [17]): 0.005% | concentration after depletion (target antibodies [18]): 0.0143 µg/mL | recovery [%] (target antibodies [18]): 0.014% | signal [OD405 nm] [25]: 0.069 OD405 nm | signal [OD405 nm] [26]: 0.037 OD405 nm
